Article PMC2796180

Target: GFP-tagged mProVII chains (in the FRET assay) (mouse)
Experiment: FRET or BRET

FRET efficiency EF: 5.83%
Substance: RFP-tagged wild type mouse mini-procollagen VII α chain (domain or fragment)
